{
  "source": "paper PMC7343451",
  "origin": "cited, not measured here",
  "biological_target": "SARS-CoV-2 spike RBD (Severe acute respiratory syndrome coronavirus 2) (UniProt P0DTC2)",
  "data": [
    {"substance": "hACE2 peptide 21-43 (from UniProt Q9BYF1)", "values": [
      {"measurement": "Kd", "result": 47, "unit": "nM"}
    ]}
  ]
}
